US10563171B2, “Method for inducing differentiation of pluripotent stem cells into germ cells” (Kyoto University, priority 2015, dated 2020)

What was measured:
BTAG 585B1-868 hiPSCs = test: Induction of iMeLCs from hiPSCs having induction capacity into BTAG positive cells (FACS of BTAG(+) cells); type: cell-based, human; conditions: added during induction of iMeLC; FIG. 10D, 10E
Description: (§1) Initial mesoderm-like cells (iMeLCs) were induced by seeding hiPSCs maintained in StemFit™ in a 12 well plate coated with human plasma fibronectin (Millipore, FC010) at 1.0-2.0×10^5 cells per well in GK15 medium [GMEM containing 15% KSR, 0.1 mM NEAA, 2 mM L-glutamine, 1 mM sodium pyruvate and 0.1 mM 2-mercaptoethanol (Life Technologies)] containing 50 ng/ml activin A, 3 μM CHIR99021 and 10 μM ROCK inhibitor (Y-27632; Wako Pure Chemical Industries). The hiPSCs were induced by seeding in a low-cell-binding V-bottom 96 wellplate (Thermo, 81100574) at 3.0×10^3 cells per well in GK15 added with 1000 U/ml LlF (Millipore, #LIF1005), 200 ng/ml BMP 4,100 ng/ml SCF (R&D Systems, 455-MC), 50 ng/ml EGF (R&D Systems, 236-EG), and 10 μM ROCK inhibitor. For investigation of conditions and induction of iMeLCs or hPGCLC, PD173074 (StemGent, #04-0008) or LDN193189 (StemGent, #04-0074) was respectively added. Other than the above, WNT3A (R&D Systems, 5036-WN) was used instead of CHIR99021, and BMP2 (R&D Systems, 355-BM), BMP7 (R&D Systems, 354-BP), or BMP8A (R&D Systems, 1073-BP) was used instead of BMP4.
(§2) Floating aggregates containing hPGCLCs were separated by treating with 0.05% Trypsin-EDTA/PBS at 37° C. for 10 min. […] The collected cells were suspended in FACS buffer (0.1% BSA in PBS) and analyzed by a flow cytometer (ARIA III; BD Biosciences). […]

iMeLCs = test: Induction of BTAG positive cells (hPGCLCs) from iMeLCs in floating aggregates; type: cell-based, human; conditions: combination of BMP4, LIF, SCF and EGF changed; FIG. 11A-D
Description: as §1, §2

B1: BMP4: bone morphogenetic 4 (protein, UniProt P12644 293-408, looked up)
Bone morphogenetic protein 4: SPKHHSQRARKKNKNCRRHSLYVDFSDVGWNDWIVAPPGYQAFYCHGDCPFPLADHLNSTNHAIVQTLVNSVNSSIPKACCVPTELSAISMLYLDEYDKVVLKNYQEMVVEGCGCR
BTAG 585B1-868 hiPSCs
  effect of signaling on iMeLCs induction: acts negatively
iMeLCs
  role in induction of BTAG positive cells from iMeLCs: essential
